Assay results reported in the supplement of paper PMC10567573.

B1: LOXL2 (parent)
chain: YVEVKEGKTWKQICDKHWTAKNSR

Variants of: B1
Experiment: protein stability index of a GFP-peptide fusion (GPS, HEK-293T) (PSI 1-6); higher = more stable
Conditions: c terminus: a fixed tail appended
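Note: lentivirally expressed fusions sorted by FACS into six bins by GFP to DsRed ratio, PSI derived from sequencing read proportions per bin multiplied by bin number.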

| Variant | protein stability index |
| --- | --- |
| YVEVKEGKTWKQICNKHWTAKNSR | 2.27 |
| YVEVKEGKTWKQICCKHWTAKNSR | 1.72 |
| YVEVKEGKTWKQICGKHWTAKNSR | 2.64 |
| YVEVKEGKTWKQICHKHWTAKNSR | 2.49 |
| YVEVKEGKTWKQICKKHWTAKNSR | 2.94 |
| YVEVKEGKTWKQICAKHWTAKNSR | 2.96 |
| YVEVKEGKTWKQICSKHWTAKNSR | 2.56 |
| YVEVKEGKTWKQICIKHWTAKNSR | 1.83 |
| YVEVKEGKTWKQICMKHWTAKNSR | 2.05 |
| YVEVKEGKTWKQICYKHWTAKNSR | 2.13 |
| YVEVKEGKTWKQICVKHWTAKNSR | 2.49 |
| YVEVKEGKTWKQICFKHWTAKNSR | 2.12 |
| YVEVKEGKTWKQICEKHWTAKNSR | 3.34 |
| YVEVKEGKTWKQICLKHWTAKNSR | 2.62 |
| YVEVKEGKTWKQICTKHWTAKNSR | 2.26 |
| YVEVKEGKTWKQICWKHWTAKNSR | 2.6 |
| YVEVKEGKTWKQICRKHWTAKNSR | 1.8 |
| YVEVKEGKTWKQICPKHWTAKNSR | 1.76 |
| YVEVKEGKTWKQICQKHWTAKNSR | 2.56 |
| YVEVKEGKTWKQICDKNWTAKNSR | 2.89 |
| YVEVKEGKTWKQICDKYWTAKNSR | 3.47 |
| YVEVKEGKTWKQICDKLWTAKNSR | 2.81 |
| YVEVKEGKTWKQICDKPWTAKNSR | 3.06 |
| YVEVKEGKTWKQICDKRWTAKNSR | 3.35 |

| Variant | protein stability index |
| --- | --- |
| YVEVKEGKTWKQICDKQWTAKNSR | 1.53 |
| YVEVKEGKTWKQICDKFWTAKNSR | 3.2 |
| YVEVKEGKTWKQICDKSWTAKNSR | 1.82 |
| YVEVKEGKTWKQICDKAWTAKNSR | 3 |
| YVEVKEGKTWKQICDKCWTAKNSR | 1.56 |
| YVEVKEGKTWKQICDKGWTAKNSR | 3.27 |
| YVEVKEGKTWKQICDKVWTAKNSR | 3.44 |
| YVEVKEGKTWKQICDKDWTAKNSR | 1.84 |
| YVEVKEGKTWKQICDKTWTAKNSR | 1.97 |
| YVEVKEGKTWKQICDKIWTAKNSR | 2.14 |
| YVEVKEGKTWKQICDKKWTAKNSR | 2.98 |
| YVEVKEGKTWKQICDKMWTAKNSR | 2.41 |
| YVEVKEGKTWKQICDKEWTAKNSR | 2.3 |
| YVEVKEGKTWKLICDKHWTAKNSR | 2.39 |
| YVEVKEGKTWKIICDKHWTAKNSR | 3.16 |
| YVEVKEGKTWKVICDKHWTAKNSR | 1.48 |
| YVEVKEGKTWKHICDKHWTAKNSR | 3.06 |
| YVEVKEGKTWKPICDKHWTAKNSR | 2.31 |
| YVEVKEGKTWKAICDKHWTAKNSR | 1.56 |
| YVEVKEGKTWKGICDKHWTAKNSR | 2.63 |
| YVEVKEGKTWKFICDKHWTAKNSR | 2.46 |
| YVEVKEGKTWKKICDKHWTAKNSR | 2.63 |
| YVEVKEGKTWKEICDKHWTAKNSR | 1.58 |
| YVEVKEGKTWKCICDKHWTAKNSR | 1.58 |

| Variant | protein stability index |
| --- | --- |
| YVEVKEGKTWKMICDKHWTAKNSR | 2.64 |
| YVEVKEGKTWKNICDKHWTAKNSR | 2.61 |
| YVEVKEGKTWKYICDKHWTAKNSR | 2.07 |
| YVEVKEGKTWKTICDKHWTAKNSR | 2.43 |
| YVEVKEGKTWKDICDKHWTAKNSR | 2.02 |
| YVEVKEGKTWKRICDKHWTAKNSR | 3.12 |
| YVEVKEGKTWKWICDKHWTAKNSR | 2.42 |
| YVEVKEGKTWKQECDKHWTAKNSR | 2.33 |
| YVEVKEGKTWKQDCDKHWTAKNSR | 3.54 |
| YVEVKEGKTWKQKCDKHWTAKNSR | 2.81 |
| YVEVKEGKTWKQNCDKHWTAKNSR | 1.37 |
| YVEVKEGKTWKQACDKHWTAKNSR | 2.73 |
| YVEVKEGKTWKQRCDKHWTAKNSR | 2.59 |
| YVEVKEGKTWKQVCDKHWTAKNSR | 2.44 |
| YVEVKEGKTWKQLCDKHWTAKNSR | 1.4 |
| YVEVKEGKTWKQPCDKHWTAKNSR | 3.38 |
| YVEVKEGKTWKQWCDKHWTAKNSR | 2.25 |
| YVEVKEGKTWKQTCDKHWTAKNSR | 2.68 |
| YVEVKEGKTWKQCCDKHWTAKNSR | 2.6 |
| YVEVKEGKTWKQYCDKHWTAKNSR | 1.6 |
| YVEVKEGKTWKQHCDKHWTAKNSR | 2.42 |
| YVEVKEGKTWKQMCDKHWTAKNSR | 2.19 |
| YVEVKEGKTWKQSCDKHWTAKNSR | 2.38 |
| YVEVKEGKTWKQQCDKHWTAKNSR | 2.5 |

| Variant | protein stability index |
| --- | --- |
| YVEVKEGKTWKQIDDKHWTAKNSR | 2.4 |
| YVEVKEGKTWKQIPDKHWTAKNSR | 1.98 |
| YVEVKEGKTWKQIFDKHWTAKNSR | 2.07 |
| YVEVKEGKTWKQIQDKHWTAKNSR | 1.74 |
| YVEVKEGKTWKQIVDKHWTAKNSR | 1.93 |
| YVEVKEGKTWKQIIDKHWTAKNSR | 2.16 |
| YVEVKEGKTWKQIYDKHWTAKNSR | 1.93 |
| YVEVKEGKTWKQINDKHWTAKNSR | 1.99 |
| YVEVKEGKTWKQIHDKHWTAKNSR | 4.51 |
| YVEVKEGKTWKQIADKHWTAKNSR | 1.77 |
| YVEVKEGKTWKQISDKHWTAKNSR | 1.75 |
| YVEVKEGKTWKQIGDKHWTAKNSR | 2.31 |
| YVEVKEGKTWKQIKDKHWTAKNSR | 1.45 |
| YVEVKEGKTWKQILDKHWTAKNSR | 1.8 |
| YVEVKEGKTWKQIWDKHWTAKNSR | 4.18 |
| YVEVKEGKTWKQITDKHWTAKNSR | 2.52 |
| YVEVKEGKTWKQIRDKHWTAKNSR | 2.33 |
| YVEVKEGKTWKQIEDKHWTAKNSR | 2.5 |
| YVEVKEGKTWKQIMDKHWTAKNSR | 2.98 |
| YVEVKEGKTSKQICDKHWTAKNSR | 2.73 |
| YVEVKEGKTGKQICDKHWTAKNSR | 2.23 |
| YVEVKEGKTPKQICDKHWTAKNSR | 2.69 |
| YVEVKEGKTQKQICDKHWTAKNSR | 2.7 |
| YVEVKEGKTYKQICDKHWTAKNSR | 1.93 |

| Variant | protein stability index |
| --- | --- |
| YVEVKEGKTNKQICDKHWTAKNSR | 2.5 |
| YVEVKEGKTHKQICDKHWTAKNSR | 2.44 |
| YVEVKEGKTKKQICDKHWTAKNSR | 2.61 |
| YVEVKEGKTRKQICDKHWTAKNSR | 2.2 |
| YVEVKEGKTMKQICDKHWTAKNSR | 2.37 |
| YVEVKEGKTIKQICDKHWTAKNSR | 2.3 |
| YVEVKEGKTFKQICDKHWTAKNSR | 2.47 |
| YVEVKEGKTLKQICDKHWTAKNSR | 2.46 |
| YVEVKEGKTTKQICDKHWTAKNSR | 2.91 |
| YVEVKEGKTVKQICDKHWTAKNSR | 2.78 |
| YVEVKEGKTWKQICDKHWNAKNSR | 2.95 |
| YVEVKEGKTWKQICDKHWHAKNSR | 1.78 |
| YVEVKEGKTWKQICDKHWGAKNSR | 2.56 |
| YVEVKEGKTWKQICDKHWFAKNSR | 2.16 |
| YVEVKEGKTWKQICDKHWMAKNSR | 1.99 |
| YVEVKEGKTWKQICDKHWYAKNSR | 2.29 |
| YVEVKEGKTWKQICDKHWKAKNSR | 1.87 |
| YVEVKEGKTWKQICDKHWQAKNSR | 3.17 |
| YVEVKEGKTWKQICDKHWAAKNSR | 1.45 |
| YVEVKEGKTWKQICDKHWVAKNSR | 2.26 |
| YVEVKEGKTWKQICDKHWWAKNSR | 2.64 |
| YVEVKEGKTWKQICDKHWDAKNSR | 2.34 |
| YVEVKEGKTWKQICDKHWPAKNSR | 2.11 |
| YVEVKEGKTWKQICDKHWLAKNSR | 1.39 |

| Variant | protein stability index |
| --- | --- |
| YVEVKEGKTWKQICDKHWEAKNSR | 2.15 |
| YVEVKEGKTWKQICDKHWCAKNSR | 2.75 |
| YVEVKEGKTWKQICDKHWSAKNSR | 1.72 |
| YVEVKEGKTWKQICDKHWRAKNSR | 1.77 |
| YVEVKEGKTWKQICDKHWTPKNSR | 1.67 |
| YVEVKEGKTWKQICDKHWTEKNSR | 1.98 |
| YVEVKEGKTWKQICDKHWTIKNSR | 1.99 |
| YVEVKEGKTWKQICDKHWTMKNSR | 2.35 |
| YVEVKEGKTWKQICDKHWTKKNSR | 2.25 |
| YVEVKEGKTWKQICDKHWTCKNSR | 2.46 |
| YVEVKEGKTWKQICDKHWTLKNSR | 2.16 |
| YVEVKEGKTWKQICDKHWTGKNSR | 1.75 |
| YVEVKEGKTWKQICDKHWTFKNSR | 1.9 |
| YVEVKEGKTWKQICDKHWTDKNSR | 2.59 |
| YVEVKEGKTWKQICDKHWTHKNSR | 2.07 |
| YVEVKEGKTWSQICDKHWTAKNSR | 3.37 |
| YVEVKEGKTWWQICDKHWTAKNSR | 3.53 |
| YVEVKEGKTWQQICDKHWTAKNSR | 1.83 |
| YVEVKEGKTWMQICDKHWTAKNSR | 2.1 |
| YVEVKEGKTWEQICDKHWTAKNSR | 2.28 |
| YVEVKEGKTWHQICDKHWTAKNSR | 2.45 |
| YVEVKEGKTWCQICDKHWTAKNSR | 2.28 |
| YVEVKEGKTWVQICDKHWTAKNSR | 2.1 |
| YVEVKEGKTWTQICDKHWTAKNSR | 2.93 |

| Variant | protein stability index |
| --- | --- |
| YVEVKEGKTWYQICDKHWTAKNSR | 4.35 |
| YVEVKEGKTWPQICDKHWTAKNSR | 1.99 |
| YVEVKEGKTWDQICDKHWTAKNSR | 1.18 |
| YVEVKEGKTWRQICDKHWTAKNSR | 2.52 |
| YVEVKEGKTWGQICDKHWTAKNSR | 2.77 |
| YVEVKEGKTWFQICDKHWTAKNSR | 3.38 |
| YVEVKEGKTWIQICDKHWTAKNSR | 2.23 |
| YVEVKEGKTWLQICDKHWTAKNSR | 2.53 |
| YVEVKEGKTWKQICDVHWTAKNSR | 2.46 |
| YVEVKEGKTWKQICDLHWTAKNSR | 2.42 |
| YVEVKEGKTWKQICDWHWTAKNSR | 2.44 |
| YVEVKEGKTWKQICDNHWTAKNSR | 1.93 |
| YVEVKEGKTWKQICDIHWTAKNSR | 2.32 |
| YVEVKEGKTWKQICDEHWTAKNSR | 1.19 |
| YVEVKEGKTWKQICDDHWTAKNSR | 3.38 |
| YVEVKEGKTWKQICDQHWTAKNSR | 2.24 |
| YVEVKEGKTWKQICDSHWTAKNSR | 3.34 |
| YVEVKEGKTWKQICDPHWTAKNSR | 1.95 |
| YVEVKEGKTWKQICDYHWTAKNSR | 2.82 |
| YVEVKEGKTWKQICDHHWTAKNSR | 2.83 |
| YVEVKEGKTWKQICDFHWTAKNSR | 2.02 |
| YVEVKEGKTWKQICDMHWTAKNSR | 2.3 |
| YVEVKEGKTWKQICDAHWTAKNSR | 2.08 |
| YVEVKEGKTWKQICDGHWTAKNSR | 3.14 |

| Variant | protein stability index |
| --- | --- |
| YVEVKEGKTWKQICDRHWTAKNSR | 3.43 |
| YVEVKEGKTWKQICDKHSTAKNSR | 2.05 |
| YVEVKEGKTWKQICDKHQTAKNSR | 1.84 |
| YVEVKEGKTWKQICDKHYTAKNSR | 1.56 |
| YVEVKEGKTWKQICDKHHTAKNSR | 3.04 |
| YVEVKEGKTWKQICDKHTTAKNSR | 1.94 |
| YVEVKEGKTWKQICDKHRTAKNSR | 1.5 |
| YVEVKEGKTWKQICDKHMTAKNSR | 2.46 |
| YVEVKEGKTWKQICDKHLTAKNSR | 2.19 |
| YVEVKEGKTWKQICDKHITAKNSR | 1.96 |
| YVEVKEGKTWKQICDKHCTAKNSR | 2.54 |
| YVEVKEGKTWKQICDKHATAKNSR | 2.76 |
| YVEVKEGKTWKQICDKHFTAKNSR | 2.54 |
| YVEVKEGKTWKQICDKHDTAKNSR | 3.01 |
| YVEVKEGKTWKQICDKHVTAKNSR | 2.66 |
| YVEVKEGKTWKQICDKHKTAKNSR | 2.11 |
| YVEVKEGKTWKQICDKHNTAKNSR | 2.58 |
| YVEVKEGKTWKQICDKHPTAKNSR | 1.94 |
| YVEVKEGKTWKQICDKHETAKNSR | 2.52 |
| YVEVKEGKTWKQICDKHGTAKNSR | 2 |
